Values quoted from earlier work in publication PMC12376249.

Target: Histone H1 (Homo sapiens) (UniProt P07305)
Assay: single-molecule FRET

UniProt P07305, sequence (P07305 2-194): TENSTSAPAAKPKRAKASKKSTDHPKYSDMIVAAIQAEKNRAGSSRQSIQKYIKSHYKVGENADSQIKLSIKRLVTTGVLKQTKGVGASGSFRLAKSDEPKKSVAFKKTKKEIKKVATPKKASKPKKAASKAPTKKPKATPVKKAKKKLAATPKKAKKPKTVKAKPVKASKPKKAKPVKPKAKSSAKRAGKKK

Kd: 0.05 nM
Substance: Prothymosin alpha (from UniProt P06454)
